Data on four molecules can be found in US20100291106A1 (Novartis, published 2010).

Experiment [1] concerns the target T1, human complement C3b protein (human, UniProt P01024 23-667; P01024 749-1663).
T1 construct: Purified plasma C3b (Complement Technology, Quidel); Depending on the assay it was captured by an anti-C3d antibody, coated, biotinylated or coupled to beads; also called human C3b; huC3b
Kind of experiment: solution equilibrium titration (SET), ECL detection, Fab.

Experiment [2] addresses T2, cynomolgus complement C3b protein (cynomolgus monkey (Macaca fascicularis)).
T2 construct: also called cyno C3b; cynoC3b
Described as above.

In a further experiment the target is T3, human C5 (human, UniProt P01031 19-673; P01031 678-1676).
T3 construct: Captured by an anti-C5 antibody in the ELISA
T3 sequence (P01031 19-673 limits assumed, chain 1 of 2): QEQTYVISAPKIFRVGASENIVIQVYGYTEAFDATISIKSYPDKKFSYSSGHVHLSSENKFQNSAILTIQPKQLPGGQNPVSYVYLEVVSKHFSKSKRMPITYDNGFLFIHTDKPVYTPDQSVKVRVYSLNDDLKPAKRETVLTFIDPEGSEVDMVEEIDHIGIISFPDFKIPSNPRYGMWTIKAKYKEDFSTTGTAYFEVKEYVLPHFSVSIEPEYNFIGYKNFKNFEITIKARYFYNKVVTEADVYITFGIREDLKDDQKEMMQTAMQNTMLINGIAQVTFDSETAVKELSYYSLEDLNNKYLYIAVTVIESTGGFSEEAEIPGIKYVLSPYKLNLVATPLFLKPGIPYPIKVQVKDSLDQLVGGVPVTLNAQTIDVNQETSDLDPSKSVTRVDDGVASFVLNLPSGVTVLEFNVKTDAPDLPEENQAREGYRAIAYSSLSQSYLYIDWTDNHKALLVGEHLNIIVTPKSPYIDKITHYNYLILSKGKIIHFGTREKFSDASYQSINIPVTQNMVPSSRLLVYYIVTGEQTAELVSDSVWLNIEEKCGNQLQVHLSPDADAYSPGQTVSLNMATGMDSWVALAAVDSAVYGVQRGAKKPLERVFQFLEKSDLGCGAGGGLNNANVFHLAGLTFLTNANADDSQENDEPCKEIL
T3 sequence (P01031 678-1676 limits assumed, chain 2 of 2): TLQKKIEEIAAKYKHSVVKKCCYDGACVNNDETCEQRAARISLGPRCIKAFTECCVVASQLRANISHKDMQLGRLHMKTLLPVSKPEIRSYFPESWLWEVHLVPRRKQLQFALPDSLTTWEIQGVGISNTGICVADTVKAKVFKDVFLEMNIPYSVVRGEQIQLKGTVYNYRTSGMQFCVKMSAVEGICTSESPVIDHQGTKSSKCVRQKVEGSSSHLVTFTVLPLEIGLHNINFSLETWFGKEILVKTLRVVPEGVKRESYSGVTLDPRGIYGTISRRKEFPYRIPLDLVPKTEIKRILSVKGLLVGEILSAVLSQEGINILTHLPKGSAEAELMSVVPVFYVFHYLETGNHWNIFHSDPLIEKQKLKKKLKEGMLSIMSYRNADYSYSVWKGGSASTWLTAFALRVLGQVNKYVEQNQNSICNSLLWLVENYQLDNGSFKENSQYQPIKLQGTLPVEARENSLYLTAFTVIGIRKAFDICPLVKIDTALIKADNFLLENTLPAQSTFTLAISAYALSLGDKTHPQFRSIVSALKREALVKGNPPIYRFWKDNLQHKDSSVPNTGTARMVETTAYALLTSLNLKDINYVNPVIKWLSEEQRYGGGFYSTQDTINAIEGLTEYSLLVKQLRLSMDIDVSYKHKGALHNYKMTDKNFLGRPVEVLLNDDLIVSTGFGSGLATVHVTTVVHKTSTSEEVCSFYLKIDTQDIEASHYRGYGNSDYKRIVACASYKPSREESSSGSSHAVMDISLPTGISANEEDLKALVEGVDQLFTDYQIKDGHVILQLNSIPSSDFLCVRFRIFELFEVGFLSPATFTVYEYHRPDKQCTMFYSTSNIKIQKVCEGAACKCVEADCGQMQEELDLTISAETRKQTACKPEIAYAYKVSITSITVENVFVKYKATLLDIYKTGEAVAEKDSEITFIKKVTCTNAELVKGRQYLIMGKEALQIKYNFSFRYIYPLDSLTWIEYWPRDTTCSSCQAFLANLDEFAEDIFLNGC
Put plainly: Direct ELISA at 2 ug/ml C5, 200 nM Fab. Background: In an ELISA, binding on a coated surface is turned into a signal by an enzyme label.

For experiment [3], the target named is T1, human complement C3b protein. Kind of experiment: SPR (Biacore), C3b captured by anti-C3d antibody, Fab as analyte.
The target in experiment [4] is T2, cynomolgus complement C3b protein. The experiment is described as above.
Experiment [5] concerns the target T1, human complement C3b protein. Kind of experiment: bead proximity assay, C3b-acceptor beads; competitor biotinylated fB(D24G/N260D). As to the method:
(§1) In brief, purified C3b and fP were conjugated to unconjugated acceptor or donor beads (PerkinElmer) using AminoLink Reductant (Pierce) during a 48 h incubation at room temperature. Beads were quenched using Carboxymethoxylamine Hemihydrochloride (Aldrich), and purified by centrifugation at 13000 rpm and three washes with 0.1M TBST. Purified fB(D24G/N260D) and fH were biotinylated during a 30 min incubation with 20-fold molar excess of NHS-Chromogenic-biotin (Pierce) at room temperature, and purified using Zeba 0.5 ml desalting columns (Pierce).
(§2) For C3b-C3b and C3b-fP proximity, Fabs or IgGs respectively were pre-incubated with C3b-Acceptor beads (20 μg/ml) for 60 min at room temperature. C3b-Donor beads or fP-Donor beads (20 μg/ml) were then added, and the plate was incubated overnight at room temperature before reading. For C3b-fB and C3b-fH proximity, antibodies were pre-incubated with C3b-Acceptor beads (20 μg/ml) for 60 minutes at room temperature. Biotinylated fB(D24G/N260D) or fH were then added, and incubated for 60 minutes at room temperature. SA-Donor beads were then added (20 μg/ml) and the plate was incubated overnight at room temperature before reading. Plates were read on the BMG Pherastar (ex=680, em=520-620).

For experiment [6] the target is unchanged. Put plainly: bead proximity assay, C3b-acceptor beads; competitor biotinylated fH. As for the experimental part: as §1, §2
The target is the same in experiment [7]. Put plainly: cell-based or functional assay.
In experiment [8] the target is T2, cynomolgus complement C3b protein. Put plainly: cell-based or functional assay.
The target of experiment [9] is T4, human C3d (human, UniProt P01024 1002-1303).
T4 construct: domain: C3d
T4 sequence (P01024 1002-1303 limits assumed): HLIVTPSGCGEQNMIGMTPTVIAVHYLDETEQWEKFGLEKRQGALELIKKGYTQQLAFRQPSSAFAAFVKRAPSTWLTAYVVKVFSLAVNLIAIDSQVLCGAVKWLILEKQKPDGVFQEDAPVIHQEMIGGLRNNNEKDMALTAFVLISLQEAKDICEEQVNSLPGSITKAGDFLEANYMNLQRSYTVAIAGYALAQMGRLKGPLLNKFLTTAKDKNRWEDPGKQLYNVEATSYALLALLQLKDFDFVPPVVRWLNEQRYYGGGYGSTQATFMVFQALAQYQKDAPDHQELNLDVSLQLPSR
Put plainly: cross reactivity, ELISA on C3d, anti-His detection.

For experiment [10], the target named is T1, human complement C3b protein. Put plainly: cell-based or functional assay. This is another data set of the same source.
Experiment [11] has the same target. Put plainly: SPR (Biacore T100), C3b captured by anti-C3d antibody, IgG as analyte, 1:1 model. On the technique in general: SPR reads the build-up and loss of mass on a sensor chip optically.
The target in experiment [12] is T2, cynomolgus complement C3b protein. Described as above.
Experiment [13] addresses T4, human C3d. Kind of experiment: C3d binding ELISA, IgG titrated from about 0.006 to 100 nM.
The target in experiment [14] is T1, human complement C3b protein. Kind of experiment: AlphaScreen bead proximity, C3b-Acceptor beads pre-incubated with antibody, then C3b-Donor beads; inhibition of C3b-C3b dimer formation; unit from the axis [Antibody] nM [D]. As to the method: as §1, §2
For orientation: In Alpha technology, singlet oxygen from a donor bead excites a nearby acceptor bead.

Experiment [15] has the same target. Put plainly: AlphaScreen bead proximity, C3b-Acceptor beads pre-incubated with antibody, then biotinylated fH and SA-Donor beads; blocked ligand: fH [C]. As to the method: as §1, §2
Experiment [16] has the same target. Kind of experiment: ELISA, C3b or C3 captured by anti-C3d antibody. As for the experimental part:
The C3b antibodies were examined to determine whether they were selective for binding to C3b relative to the C3b precursor C3. Briefly, binding selectivity for C3b was determined by performing the following steps. Coat Maxisorp plate Nunc (442404) with anti-C3d rabbit monoclonal (abcam 17453) at 2 μg/ml in Carbonate Buffer at 100 μl/well. Seal plates and incubate at 4° C. overnight. Aspirate plates and wash 3 times with PBS/0.5% Tween 20. Block plates with Diluent (PBS, 4% BSA Fraction V (Fisher ICN16006980), 0.1% Tween 20 (Sigma P1379), 0.1% Triton X-100 (Sigma P234729)) and incubate for 2 h at room temperature or overnight at 4° C. Then wash plates once with PBS/0.5% Tween 20. Dilute purified C3b (complement technologies A114 lot 21) and C3 (complement technologies A113c) at 1 μg/ml in diluent and plate 100 μl per well. Incubate for 1 h at room temperature. Then wash 3 times with PBS/0.5% Tween 20.
Dilute Fabs at 100 nM and subsequent dilutions (or higher concentration) in diluent and plate 100 μl per well. Incubate at room temperature for 1 h. Wash plates 3 times with PBS/0.5% Tween 20. Add 100 μl/well of anti-Histidine-HRP monoclonal detection antibody at 1:400 in diluent and incubate at room temperature for 1 h. Then wash 4 times with PBS/0.5% Tween 20. Add 100 μl of TMB substrate (Pierce 34028) and incubate at room temperature for up to 5 min. Add 50 μl of Stop solution (2N Sulfuric Acid) to each well and read plate at 450 nm and correct for plastic reading at 570 nm.

Experiment [17] shares this target. Kind of experiment: AlphaScreen bead proximity, C3b-Acceptor beads pre-incubated with antibody, then biotinylated fB(D24G/N260D) and SA-Donor beads; blocked ligand: fB [A]. As to the method:
as §1, §2

T1 sequence (P01024 23-667 P314L, chain 1 of 2): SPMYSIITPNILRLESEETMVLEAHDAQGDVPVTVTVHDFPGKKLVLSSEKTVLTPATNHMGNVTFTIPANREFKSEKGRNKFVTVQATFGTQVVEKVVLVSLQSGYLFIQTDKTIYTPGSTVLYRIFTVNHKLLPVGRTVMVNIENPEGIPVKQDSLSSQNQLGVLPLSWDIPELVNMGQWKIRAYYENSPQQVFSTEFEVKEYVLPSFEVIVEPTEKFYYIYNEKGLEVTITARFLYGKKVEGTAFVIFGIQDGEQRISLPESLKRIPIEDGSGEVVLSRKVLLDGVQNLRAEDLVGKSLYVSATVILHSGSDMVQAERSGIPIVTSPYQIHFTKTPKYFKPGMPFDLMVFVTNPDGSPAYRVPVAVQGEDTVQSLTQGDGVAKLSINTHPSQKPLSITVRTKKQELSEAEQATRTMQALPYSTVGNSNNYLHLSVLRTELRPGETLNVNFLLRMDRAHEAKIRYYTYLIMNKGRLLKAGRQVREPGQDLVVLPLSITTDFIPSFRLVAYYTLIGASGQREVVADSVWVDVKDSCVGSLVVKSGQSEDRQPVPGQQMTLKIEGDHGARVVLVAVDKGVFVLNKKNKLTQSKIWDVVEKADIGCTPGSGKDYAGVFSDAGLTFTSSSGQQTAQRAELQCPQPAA
T1 sequence (P01024 749-1663, chain 2 of 2): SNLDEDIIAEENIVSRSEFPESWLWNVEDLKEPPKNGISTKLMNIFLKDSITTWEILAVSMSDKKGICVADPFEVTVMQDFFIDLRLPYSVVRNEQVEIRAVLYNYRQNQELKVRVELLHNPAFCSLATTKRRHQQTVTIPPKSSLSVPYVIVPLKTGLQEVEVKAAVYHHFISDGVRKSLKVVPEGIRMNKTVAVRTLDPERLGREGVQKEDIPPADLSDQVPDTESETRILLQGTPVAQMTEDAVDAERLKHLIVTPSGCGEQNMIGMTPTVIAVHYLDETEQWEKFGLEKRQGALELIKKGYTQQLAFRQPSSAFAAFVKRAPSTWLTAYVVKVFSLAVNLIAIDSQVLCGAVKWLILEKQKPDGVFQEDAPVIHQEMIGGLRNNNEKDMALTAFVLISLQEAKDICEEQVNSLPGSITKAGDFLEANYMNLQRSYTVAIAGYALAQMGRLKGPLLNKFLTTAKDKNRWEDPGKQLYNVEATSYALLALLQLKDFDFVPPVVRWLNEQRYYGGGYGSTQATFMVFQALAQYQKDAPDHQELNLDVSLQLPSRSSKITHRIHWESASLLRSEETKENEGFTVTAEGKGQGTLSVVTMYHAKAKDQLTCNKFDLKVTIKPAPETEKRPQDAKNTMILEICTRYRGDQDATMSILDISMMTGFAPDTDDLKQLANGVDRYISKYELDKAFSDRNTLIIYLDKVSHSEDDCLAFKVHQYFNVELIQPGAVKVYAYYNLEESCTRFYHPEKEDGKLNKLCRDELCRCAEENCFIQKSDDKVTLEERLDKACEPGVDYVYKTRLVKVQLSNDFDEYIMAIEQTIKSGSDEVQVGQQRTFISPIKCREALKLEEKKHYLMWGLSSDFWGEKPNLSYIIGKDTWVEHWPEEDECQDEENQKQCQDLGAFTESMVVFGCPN

B1: MOR9556 Fab format (Fab, V domains shown)
VH: EVQLVESGGGLVQPGGSLRLSCAASGFTFSSYWMTWVRQAPGKGLEWVSSIKIKPDGYAASVKGRFTISRDNSKNTLYLQMNSLRAEDTAVYYCARLFYQYFARMDYWGQGTLVTVSS
VL: DIQMTQSPSSLSASVGDRVTITCRASQDISNYLNWYQQKPGKAPKLLIYAASNLQSGVPSRFSGSGSGTDFTLTISSLQPEDFATYYCQQYDSYSPTFGQGTKVEIK
Consider B1, for which the affinity in [1], expressed as Kd, was 1.5 pM. Further, in experiment [2], the dissociation constant (Kd) is 18 pM. The binding result in the experiment with human C5 was “no binding (tested: 200 nM)”. In experiment [3], the dissociation constant Kd was found to be 6.6 pM. The molecule also came in with a Kd in [4] of 42 pM. For the same molecule, the IC50 in experiment [5] is 150 pM. This molecule registered a half-maximal inhibitory concentration (IC50) in [6] of 200 pM. Moreover, in experiment [7], the “C3a (nM), human, inhibition of C3a generation” value came out at 90 nM; the “C3b Dep (nM), human serum, IC50” value was found to be 24 nM; the “C5a (nM), human, inhibition of C5a generation” value came to 17 nM; the “HA (nM), 10% human serum, IC50” value was determined as 62 nM. Further, the “MAC Dep (nM), human serum, IC50” value in experiment [7] was found to be 4 nM. In [8], the “C3b Dep (nM), cyno serum, IC50” value is 43 nM; the “HA (nM), 10% cyno serum, IC50” value was determined as 99 nM; the “MAC Dep (nM), cyno serum, IC50” value was determined as 18 nM. The binding result with human C3d [9] was “no binding”.

B2: MOR09612 IgG (antibody, V domains shown)
VH: EVQLVESGGGLVQPGGSLRLSCAASGFTFSSYWMTWVRQAPGKGLEWVSSIKIKPDGYAASVKGRFTISRDNSKNTLYLQMNSLRAEDTAVYYCARLFYQYFARMDYWGQGTLVTVSS
VL: DIQMTQSPSSLSASVGDRVTITCRASQDISNYLNWYQQKPGKAPKLLIYAASNLQSGVPSRFSGSGSGTDFTLTISSLQPEDFATYYCQQWDSFSPTFGQGTKVEIKR
notes: Germlined human IgG1 with leucines 234 and 235 changed to alanines, kappa; also called antibody 9612
For the molecule B2, in experiment [10], the “MAC deposition on zymosan, IC50” value is at most 5000 pM; the “hemolysis of rabbit red blood cells, 10% human or cynomolgus serum, IC50” value is at most 50000 pM; the “inhibition of C3a and C5a generation during hemolysis, IC50” value was at most 50000 pM. In addition, in experiment [11], binding was characterised by a dissociation constant (Kd) of 1.79 pM, the koff worked out at 9.04e-06 s⁻¹ and the kon was determined as 5.05e+06 M⁻¹ s⁻¹. In experiment [12], this molecule displayed an equilibrium dissociation constant (Kd) of 25.3 pM, a koff of 8.67e-05 s⁻¹ and a kon of 3.43e+06 M⁻¹ s⁻¹. The binding result with human C3d [13] was “no binding (tested: 100 nM)”. The same molecule gave a concentration for a half-maximal effect (EC50) in experiment [14] of 340000 pM. Further, the “IC50 (read off the curve)” value in [15] was about 40 pM. Also, the “fold binding selectivity for C3b over C3” value in [16] is over 1000 fold. Also, the “IC50 (read off the curve)” value in [17] is about 50 pM.

B3: MOR09611 IgG (antibody, V domains shown)
VH: EVQLVESGGGLVQPGGSLRLSCAASGFTFSSYWMTWVRQAPGKGLEWVSSIKIKPDGYAASVKGRFTISRDNSKNTLYLQMNSLRAEDTAVYYCARLFYQYFARMDYWGQGTLVTVSS
VL: DIQMTQSPSSLSASVGDRVTITCRASQDISNYLNWYQQKPGKAPKLLIYAASNLQSGVPSRFSGSGSGTDFTLTISSLQPEDFATYYCQQHDTFRPTFGQGTKVEIKR
notes: Germlined human IgG1 with leucines 234 and 235 changed to alanines, kappa; also called antibody 9611
On to B3, for which, in experiment [10], the “MAC deposition on zymosan, IC50” value was at most 5000 pM; the “hemolysis of rabbit red blood cells, 10% human or cynomolgus serum, IC50” value is at most 50000 pM; the “inhibition of C3a and C5a generation during hemolysis, IC50” value is at most 50000 pM. Also, in [11], the Kd came out at 0.435 pM, the koff was 3.1e-06 s⁻¹ and the kon worked out at 7.13e+06 M⁻¹ s⁻¹. For the same molecule, in experiment [12], the Kd worked out at 18.3 pM, the koff worked out at 0.000128 s⁻¹ and the on-rate (kon) stood at 6.97e+06 M⁻¹ s⁻¹. The binding result with human C3d [13] is recorded as “no binding (tested: 100 nM)”. Further, a half-maximal response in [14] (EC50) required 605000 pM. In addition, in experiment [15], the “IC50 (read off the curve)” value was about 40 pM. For the same molecule, the “fold binding selectivity for C3b over C3” value in [16] is over 1000 fold. Besides, the “IC50 (read off the curve)” value in experiment [17] was about 50 pM.

B4: MOR9675 Fab format (Fab, V domains shown)
VH: EVQLVQSGAEVKKPGASVKVSCKASGYTFTGYYINWVRQAPGQGLEWMGIISPNQGTTGYAQKFQGRVTMTRDTSISTAYMELSSLRSEDTAVYYCARGNYDHLDYWGQGTLVTVSS
VL: DIQMTQSPSSLSASVGDRVTITCRASQGISNYLNWYQQKPGKAPKLLIYDASTLQSGVPSRFSGSGSGTDFTLTISSLQPEDFATYYCQQDWHTLPVTFGQGTKVEIK
Consider B4, for which binding in experiment [1] was characterised by a dissociation constant (Kd) of 52 pM. In experiment [2], this molecule showed a dissociation constant (Kd) of 241 pM. Besides, in the experiment with human C5, the binding result is reported as “no binding (tested: 200 nM)”. Besides, binding in experiment [3] was characterised by a dissociation constant (Kd) of 121 pM. In [4], this molecule yielded a dissociation constant (Kd) of 562 pM. For the same molecule, in [5], the half-inhibitory concentration (IC50) turned out to be 1000 pM. Further, in experiment [6], the half-maximal inhibitory concentration (IC50) came out at 200 pM. Moreover, in experiment [7], the “C3a (nM), human, inhibition of C3a generation” value amounted to 97 nM; the “C3b Dep (nM), human serum, IC50” value stood at 11 nM; the “C5a (nM), human, inhibition of C5a generation” value turned out to be 36 nM; the “HA (nM), 10% human serum, IC50” value came to 60 nM. Moreover, the “MAC Dep (nM), human serum, IC50” value in [7] amounted to 3 nM. In experiment [8], the “C3b Dep (nM), cyno serum, IC50” value stood at 43 nM; the “HA (nM), 10% cyno serum, IC50” value came to 92 nM; the “MAC Dep (nM), cyno serum, IC50” value amounted to 14 nM. For the same molecule, the binding result in the experiment with human C3d [9] was “no binding”.

For orientation: Kd means a measure of binding affinity in units of concentration. The IC50 is the concentration needed to halve the response being measured. The term koff denotes the first-order rate constant of dissociation. Broadly, the kon is a measure of how fast the partners come together. Broadly, the EC50 is the concentration giving half of the maximal effect.
